# Reference: patent US20230265175A1
# B1: V5-AFM-hIgG4-S228P (antibody, V domains shown)
# VH: EVQLVESGGGLVQPGGSLRLSCAASGFTFSSFALNWVRQAPGKGLEWVGHIRSKTNNYVTFYAASVKGRFTVSRDDSQNTAYLQMNSLKTEDTATYYCVRRGPRDSWFGYWGQGTLVTVSS
# VL: DIVMTQSPLSLPVTLGEPASISCRSSQKIVHRNANTYLEWYLQKPGQSPQLLIYTVSNRFSGVPDRFSGSGSGTDFTLKISRVEAEDLGVYYCFQGSYLPLTFGGGTKVEIKR
# Molecular target: PD17(p)PS413 (24AWF)
# Experiment: peptide-coated ELISA (plate coated with 1 µg/ml peptide 24AWF, anti-human IgG-HRP, ABTS, OD405)
binder,measurement,value
B1,EC50 (read off the curve),0.04 µg/mL
